# Source: patent publication US11673916B2, “Neuroprotective peptides and methods of their use” (University of Pittsburgh—Of the Commonwealth System of …, priority 2020, dated 2023)
# Molecular target: T1, Kv2.1 surface clusters (Mus musculus, UniProt Q03717)
# T1 construct: immunohistochemical staining of endogenous Kv2.1 channel distribution; from tissue; host or cells: cerebral cortex of C57BL/6J mice, fixed coronal brain sections
# T1 sequence (Q03717 1-857): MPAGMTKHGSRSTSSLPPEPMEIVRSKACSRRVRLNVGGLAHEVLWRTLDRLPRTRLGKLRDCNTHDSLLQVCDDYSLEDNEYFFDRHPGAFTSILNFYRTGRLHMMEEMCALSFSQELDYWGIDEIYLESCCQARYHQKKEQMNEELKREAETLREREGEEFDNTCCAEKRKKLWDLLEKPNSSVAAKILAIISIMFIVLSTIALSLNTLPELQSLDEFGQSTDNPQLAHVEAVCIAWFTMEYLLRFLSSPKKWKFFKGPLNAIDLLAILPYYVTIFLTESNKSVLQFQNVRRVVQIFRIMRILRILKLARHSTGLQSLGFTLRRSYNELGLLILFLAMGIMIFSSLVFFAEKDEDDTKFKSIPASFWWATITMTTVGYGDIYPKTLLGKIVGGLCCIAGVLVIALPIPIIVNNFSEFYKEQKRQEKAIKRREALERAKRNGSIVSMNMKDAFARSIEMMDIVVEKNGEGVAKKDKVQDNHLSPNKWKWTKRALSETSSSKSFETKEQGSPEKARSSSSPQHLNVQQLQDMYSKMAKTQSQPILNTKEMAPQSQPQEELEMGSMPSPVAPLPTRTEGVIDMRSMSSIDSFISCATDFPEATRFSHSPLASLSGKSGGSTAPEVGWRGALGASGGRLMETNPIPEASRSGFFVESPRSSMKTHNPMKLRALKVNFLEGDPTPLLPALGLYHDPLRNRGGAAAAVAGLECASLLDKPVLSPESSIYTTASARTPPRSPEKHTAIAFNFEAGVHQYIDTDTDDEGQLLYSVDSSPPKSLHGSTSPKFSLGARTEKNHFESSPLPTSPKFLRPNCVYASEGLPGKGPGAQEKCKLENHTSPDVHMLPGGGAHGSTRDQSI
# Experiment: Immunohistochemistry of Kv2.1 clusters in mouse cerebral cortex after intraperitoneal peptide injection
# Assay type: in vivo
# Conditions: 6 nmol/g intraperitoneal, sacrificed 2 hours post-injection, mean±SEM (FIG. 5D)
# Method: Eight-week-old C57BL/6J male mice (28-30 g; Jackson, Bar Harbor, Me.) were administered IP injections of 6 nmol/g TAT-DP-2 (n=3) or TAT-Sc-2 peptide (n=3). Two hours post-injection, mice were anesthetized with 3% isoflurane (Henry Schein Animal Health, Dublin, Ohio) in a 3:1 […] gas mixture. Fifty mL of ice-cold 1× sterile PBS was transcardially perfused (5-10 mL/min), immediately followed by 50 mL of 4% sterile paraformaldehyde (PFA; 5-10 mL/min). Brains were removed and placed in 4% PFA at 4° C. for 24 hours, then transferred to 30% sucrose in 1× PBS at 4° C. for 48-72 hours. […]
# To analyze Kv2.1 distribution in live primary cortical neurons, cells were transfected with both a tdTomato construct and a GFP-tagged Kv2.1 construct (O'Connell, et al., J Neurosci. 26: 9609-9618, 2006) and imaged on a Nikon A1+ confocal microscope (Nikon, Tokyo, Japan). […] For live images of transfected neurons, object count parameters were customized to define a Kv2.1 cluster as an area of high intensity GFP fluorescence (compared to background), measuring 0.05 μm^2 or larger (Schulien et al., J Physiol (Lond). 594: 2647-2659, 2016). Kv2.1 cluster density was calculated by normalizing the number of Kv2.1 clusters counted to the somatic area of each neuron (#Kv2.1 clusters/μm^2). […]
row,Sequence,mean Kv2.1 cluster density in superficial cortex
1,"YGRKKRRQRRRSIDSFTS [TAT-DP-2, TAT-linked declustering peptide 2]",301.10±39.60 #Kv2.1 clusters/image field
2,"YGRKKRRQRRRDFSSIST [TAT-Sc-2, TAT-linked scramble control peptide]",565.70±50.72 #Kv2.1 clusters/image field
